Numbering of substitutions follows the chain as printed. In names and notes the source's numbering stands. Blank lines part the entries; values can stand above or below the binder they belong to.
Columns and labels:
[1] = target: T1, Recombinant human HER2 (human, UniProt P04626 23-652); assay: SPR, variant captured on anti-human Fc, HER2 flowed, 25 C, post-SEC
T1 construct: extracellular domain; analyte of the SPR assays; also called HER2 ECD; ECD2 of HER2
Method: (§1) The affinity towards HER2 ECD of the samples was measured by SPR on a Biacore T200 as follows. Between 2000 and 4000 RU of anti-human Fc injected at concentration between 5 and 10 μg/ml was immobilized on a CM5 chip using standard amine coupling. Antigen-binding constructs were captured on the anti-human Fc (injected at concentration at 0.51 microg/mL in PBST, 1 min at 10 microl/min) at response levels ranging from 120-270 RU. […] HER2 dilutions were analyzed in duplicates. Sensograms were fit globally to a 1: 1 Langmuir binding model, using the software provided with the Biacore T200. All experiments were conducted at 25° C.
(§2) The affinity of antigen-binding constructs in OA format was determined by SPR following protein A purification. […] Antigen-binding constructs in FSA format were purified by protein A affinity and SEC prior to assessment of affinity by SPR.

[2] = target: T1, Recombinant human HER2; assay: SPR, variant captured on anti-human Fc, HER2 flowed, 25 C, pre-SEC;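 further: HER2 extracellular domain binding on Biacore T200, CM5 chip with amine-coupled anti-human Fc, duplicate antigen dilutions, global 1:1 Langmuir fit, measured after protein A purification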
Method: as §1, §2

[3] = target: T2, Recombinant human HER2 (human, UniProt P04626 23-652); assay: calculated from the SPR Ka ratio to WT v10013;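 further: SPR at 25 °C with constructs captured on an anti-human Fc chip and HER2 extracellular domain as analyte, kinetics fitted to a 1:1 Langmuir model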
T2 construct: extracellular domain; Analyte of the SPR assays; also called HER2 ECD; ECD2 of HER2
Method: as §1

[4] = target: T2, Recombinant human HER2; assay: SPR, 25 C; Ka ratio to WT v10013;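 further: constructs captured via anti-human Fc on CM5 chip, HER2 ECD as analyte in duplicate dilutions, sensorgrams globally fit to 1:1 Langmuir model on Biacore T200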
Method: as §1

[5] = target: T2, Recombinant human HER2; assay: SPR, Biacore T200, 25 C; variant captured on anti-human Fc, HER2 flowed;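 further: HER2 extracellular domain analyte run as duplicate dilutions over amine-coupled anti-Fc on a CM5 chip, rates from global sensorgram fitting with a 1:1 Langmuir model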
Method: as §1

[6] = target: T1, Recombinant human HER2; assay: SPR, pre-SEC; ratio to WT v10013;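 further: SPR on Biacore T200 at 25 °C, constructs captured via anti-human Fc on CM5 chip, HER2 ECD as analyte, 1:1 Langmuir global fit, after protein A purification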
Method: as §1, §2

[7] = target: T1, Recombinant human HER2; assay: SPR, post-SEC; ratio to WT v10013
Method: as §1, §2

B2: Variant 14044 (antibody, human IgG1, kappa)
heavy: EVQLVESGGGLVQPGGSLRLSCAASGFTFTDYTMDWVRQAPGKGLEWVADVNPNSGGSIYNQRFKGRFTLSVDRSWNTLYLQMNSLRAEDTAVYYCARNLGPWFYFDYWGQGTLVTVSSASTKGPSVFPLAPSSKSTSGGTAALGCLVKDYFPEPVTVSWNSGALTSGVHTFPAVLQSSGLYSLSSVVTVPSSSLGTQTYICNVNHKPSNTKVDKKVEPKSCDKTHTCPPCPAPELLGGPSVFLFPPKPKDTLMISRTPEVTCVVVDVSHEDPEVKFNWYVDGVEVHNAKTKPREEQYNSTYRVVSVLTVLHQDWLNGKEYKCKVSNKALPAPIEKTISKAKGQPREPQVYVYPPSRDELTKNQVSLTCLVKGFYPSDIAVEWESNGQPENNYKTTPPVLDSDGSFALVSKLTVDKSRWQQGNVFSCSVMHEALHNHYTQKSLSLSPG
light: not shown
chain: not shown
notes: OA (one-armed) format; clones 8774, 7919, 4372; also called v14044
ΔΔG [3]: -2.4 kcal/mol
Ka, mut/Ka, WT [4]: 57 fold
Kd [5]: 0.33 nM
koff [5]: 3.2e-05 s⁻¹
kon [5]: 96000 M⁻¹ s⁻¹

B7: Variant 14039 (antibody, human IgG1, kappa)
heavy: B2 heavy with T30Y, W76K, W103S
light: not shown
chain: not shown
notes: OA (one-armed) format; clones 7813, 7919, 4372; also called v14039
ΔΔG [3]: -1.7 kcal/mol
Ka, mut/Ka, WT [4]: 18 fold
Kd [5]: 1.1 nM
koff [5]: 5.5e-05 s⁻¹
kon [5]: 50000 M⁻¹ s⁻¹

B9: Variant 14029 (antibody, human IgG1, kappa)
heavy: B2 heavy with G57Y, W103S
light: not shown
chain: not shown
notes: OA (one-armed) format; clones 8777, 1811, 4372; also called v14029
ΔΔG [3]: -2.6 kcal/mol
Ka, mut/Ka, WT [4]: ~81 fold
Kd [5]: ~0.21 nM
koff [5]: ~2e-05 s⁻¹
kon [5]: 95000 M⁻¹ s⁻¹

B10: Variant 14040 (antibody, human IgG1, kappa)
heavy: B2 heavy with W76E
light: not shown
chain: not shown
notes: OA (one-armed) format; clones 8783, 1811, 4372; also called v14040
ΔΔG [3]: -1.6 kcal/mol
Ka, mut/Ka, WT [4]: 15 fold
Kd [5]: 1.2 nM
koff [5]: 7.9e-05 s⁻¹
kon [5]: 64000 M⁻¹ s⁻¹

B11: Variant 14051 (antibody, human IgG1, kappa)
heavy: B2 heavy with T30Q, W76K, W103S
light: not shown
chain: not shown
notes: OA (one-armed) format; clones 7815, 8781, 4372; also called v14051
ΔΔG [3]: -2.4 kcal/mol
Ka, mut/Ka, WT [4]: ~62 fold
Kd [5]: ~0.31 nM
koff [5]: ~1.64e-05 s⁻¹
kon [5]: 53000 M⁻¹ s⁻¹

B12: Variant 14047 (antibody, human IgG1, kappa)
heavy: B2 heavy with T30Q, W103S
light: not shown
chain: not shown
notes: OA (one-armed) format; clones 8775, 7917, 4372; also called v14047
ΔΔG [3]: -3.1 kcal/mol
Ka, mut/Ka, WT [4]: ~188 fold
Kd [5]: ~0.1 nM
koff [5]: ~7.1e-06 s⁻¹
kon [5]: 70000 M⁻¹ s⁻¹

B14: Variant 14037 (antibody, human IgG1, kappa)
heavy: B2 heavy with W76E, W103S
light: not shown
chain: not shown
notes: OA (one-armed) format; clones 7843, 7919, 4372; also called v14037
ΔΔG [3]: -1.5 kcal/mol
Ka, mut/Ka, WT [4]: 12 fold
Kd [5]: 1.4 nM
koff [5]: 8.3e-05 s⁻¹
kon [5]: 59000 M⁻¹ s⁻¹

B15: Variant 14034 (antibody, human IgG1, kappa)
heavy: B2 heavy with W76K, W103S
light: not shown
chain: not shown
notes: OA (one-armed) format; clones 3057, 8781, 4372; also called v14034
ΔΔG [3]: -1.4 kcal/mol
Ka, mut/Ka, WT [4]: 12 fold
Kd [5]: 1.5 nM
koff [5]: 8.5e-05 s⁻¹
kon [5]: 59000 M⁻¹ s⁻¹

B16: Variant 14033 (antibody, human IgG1, kappa)
heavy: B2 heavy with S75W, W76E, W103S
light: not shown
chain: not shown
notes: OA (one-armed) format; clones 8779, 1811, 4372; also called v14033
ΔΔG [3]: -1.4 kcal/mol
Ka, mut/Ka, WT [4]: 10 fold
Kd [5]: 1.7 nM
koff [5]: 9.9e-05 s⁻¹
kon [5]: 59000 M⁻¹ s⁻¹

B17: Variant 14046 (antibody, human IgG1, kappa)
heavy: B2 heavy with W103S
light: not shown
chain: not shown
notes: OA (one-armed) format; clones 7844, 8781, 4372; also called v14046
ΔΔG [3]: -3.2 kcal/mol
Ka, mut/Ka, WT [4]: ~212 fold
Kd [5]: ~0.091 nM
koff [5]: ~9.1e-06 s⁻¹
kon [5]: 100000 M⁻¹ s⁻¹

The remaining lines, values ahead:

Kd [1]: 1.9 nM
Kd [2]: 2 nM
B1: variant 9996 (antibody)
heavy: B2 heavy with T30A, A49G, L70F, W76K, W103S
light: not shown
Fc: not shown
notes: OA format; also called v9996

ΔΔG [3]: -3.3 kcal/mol
Ka, mut/Ka, WT [4]: ~269 fold
Kd [5]: ~0.061 nM
koff [5]: ~5.3e-06 s⁻¹
kon [5]: 88000 M⁻¹ s⁻¹
B3: Variant 14059 (antibody, human IgG1, kappa)
heavy: B2 heavy with T30Y, W103S
light: not shown
chain: not shown
notes: OA (one-armed) format; clones 8776, 8781, 4372; also called v14059

ΔΔG [3]: -1.9 kcal/mol
Ka, mut/Ka, WT [4]: 26 fold
Kd [5]: 0.63 nM
koff [5]: 3.5e-05 s⁻¹
kon [5]: 56000 M⁻¹ s⁻¹
B4: Variant 14062 (antibody, human IgG1, kappa)
heavy: B2 heavy with T30Q, G57Y, W76K
light: not shown
chain: not shown
notes: OA (one-armed) format; clones 8789, 7919, 4372; also called v14062

Ka, mut/Ka, WT [6]: 1.4
Kd [1]: 13 nM
Ka, mut/Ka, WT [7]: 1.6
Kd [2]: 14 nM
B5: variant 12489 (antibody, human IgG1, kappa)
heavy: B2 heavy with G57M, W76K, W103S
light: not shown
chain: not shown
notes: OA pertuzumab variant, HC G56M (Kabat); also called v12489

Ka, mut/Ka, WT [6]: 3.5
Kd [1]: 5.8 nM
Ka, mut/Ka, WT [7]: 3.6
Kd [2]: 5.6 nM
B6: variant 12478 (antibody, human IgG1, kappa)
heavy: B2 heavy with T30Y, W76K, W103S
light: not shown
chain: not shown
notes: OA pertuzumab variant, HC T30Y (Kabat); also called v12478

Ka, mut/Ka, WT [6]: 4.6
Kd [1]: 4.4 nM
Ka, mut/Ka, WT [7]: 4.7
Kd [2]: 4.2 nM
B8: variant 12480 (antibody, human IgG1, kappa)
heavy: B2 heavy with T30Q, W76K, W103S
light: not shown
chain: not shown
notes: OA pertuzumab variant, HC T30Q (Kabat); also called v12480

ΔΔG [3]: -2.9 kcal/mol
Ka, mut/Ka, WT [4]: ~124 fold
Kd [5]: ~0.13 nM
koff [5]: ~8.3e-06 s⁻¹
kon [5]: 63000 M⁻¹ s⁻¹
B13: Variant 14063 (antibody, human IgG1, kappa)
heavy: B2 heavy with T30Q, G57Y, W76K, W103S
light: not shown
chain: not shown
notes: OA (one-armed) format; clones 8788, 8781, 4372; also called v14063

From patent publication US20180273635A1 (Zymeworks, published 2018)
